# Data reported in patent publication US20100183614A1 (COVALENT BIOSCIENCE, published 2010).
# Target: gp120 of HIV strain 97ZA009 (clade C, R5) (HIV-1 strain 97ZA009)
# Assay: cell-based or functional assay
binder,measurement,value
scFv JL427 (scFv) scFv: QSVLTQPPSVSGAPGQRVTISCSGSSSNFGLNYVYWYQHFPGTAPKLLIYRNDQRPLGVPARFSGSKSGTSASLAISGLRSEDEADYYCQSYDNSLSGWVFGGGTQLTVLGSSGGGGSGGGGSGGSALQVQLQQSGGGLVQPGRSLRLSCAASGFTFSSYGMHWVRQAPGKGLEWVSYIGRSGSHTNYADSVKGRFTISRDNSKNTLYLQINSLRAEDTAVYYCARGLPNYGMDIWGQGTTVTVSSGSASAPTLFPAAAHHHHHHGAAEQKLISEEDLNGAA,"HIV neutralization IC50, ng/mL (97ZA009, PBMC)",300 ng/mL
